Experimental findings from patent publication US20040077526A1 are described below.

The target of assay [1] is murine SR-BI (mSR-BI), class B type I scavenger receptor (murine) (UniProt Q61009). Put plainly: self-competition: unlabeled HDL (500 µg protein/ml) against [125I,3H]hHDL3 (10 µg protein/ml) on Y1-BS1 cells.
For assay [2] the target is unchanged. Kind of assay: cell association of 125I-HDL with ldlA[mSR-BI] cells at 37 C.
Assay [3] shares this target. Put plainly: time course of cell association of 125I-HDL with ldlA[mSR-BI] cells at 37 C.

Chain of UniProt Q61009 (Q61009 whole entry): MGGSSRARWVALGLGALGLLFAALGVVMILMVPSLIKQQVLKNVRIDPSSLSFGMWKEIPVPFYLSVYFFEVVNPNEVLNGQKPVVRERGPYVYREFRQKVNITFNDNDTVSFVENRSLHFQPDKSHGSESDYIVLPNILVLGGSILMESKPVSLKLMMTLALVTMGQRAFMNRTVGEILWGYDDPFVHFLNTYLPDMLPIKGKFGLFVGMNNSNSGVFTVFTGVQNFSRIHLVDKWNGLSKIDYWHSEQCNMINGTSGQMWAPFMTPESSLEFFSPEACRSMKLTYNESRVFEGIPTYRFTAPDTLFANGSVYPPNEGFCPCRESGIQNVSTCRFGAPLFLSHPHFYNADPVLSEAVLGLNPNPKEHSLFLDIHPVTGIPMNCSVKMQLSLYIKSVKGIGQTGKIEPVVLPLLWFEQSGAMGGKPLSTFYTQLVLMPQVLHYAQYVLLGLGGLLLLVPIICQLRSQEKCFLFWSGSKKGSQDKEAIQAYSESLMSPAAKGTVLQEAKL

In turn, “human HDL3 (hHDL3, 1.125-1.210 g/ml) labeled with [125I]dilactitol tyramine and [3H]cholesteryl oleolyl ether” showed a reduction of cell association of HDL in assay [1] of 85%.

As for “human HDL (high density lipoprotein prepared from human plasma by zonal centrifugation) (from UniProt P02647 25-267; P02652 24-100)”, the fraction of the total label bound to the transfected cells in 5 hours in assay [2] is under 0.5%. In assay [3], the cell-associated 125I-HDL at steady state (ng protein/mg cell protein) stood at 200.
